Measured values from patent publication EP4569003A2 (dated 2026).
Blank lines part the entries; values can stand above or below the binder they belong to.

Tests used:
[1] = molecular target: T1, CLDN3-GFP, expressed in HEK293 T cells (UniProt O15551 1-220); assay: immunohistochemistry on FFPE engineered HEK293 cells
T1 construct: whole, on cells; also called Claudin3; HEK293 CLDN3; not shown: GFP fused to CLDN3
T1 sequence (looked up): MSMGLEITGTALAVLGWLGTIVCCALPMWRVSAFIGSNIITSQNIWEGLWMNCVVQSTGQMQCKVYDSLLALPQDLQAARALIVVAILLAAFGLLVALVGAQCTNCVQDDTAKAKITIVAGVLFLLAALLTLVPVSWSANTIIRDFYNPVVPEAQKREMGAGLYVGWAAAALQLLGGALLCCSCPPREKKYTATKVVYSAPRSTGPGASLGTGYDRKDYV

[2] = molecular target: T2, CLDN4-GFP, expressed in HEK293 T cells (UniProt O14493 1-209); assay: as above
T2 construct: whole, on cells; also called Claudin4; HEK293 4; not shown: GFP fused to CLDN4
T2 sequence (looked up): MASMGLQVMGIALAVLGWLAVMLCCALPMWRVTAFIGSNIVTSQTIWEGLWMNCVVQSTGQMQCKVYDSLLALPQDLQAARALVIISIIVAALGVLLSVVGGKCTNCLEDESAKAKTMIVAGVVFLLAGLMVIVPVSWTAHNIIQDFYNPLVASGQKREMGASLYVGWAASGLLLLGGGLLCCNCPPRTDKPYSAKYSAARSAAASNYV

[3] = molecular target: T3, CLDN9-GFP, expressed in HEK293 T cells (UniProt O95484 1-217); assay: as above
T3 construct: whole, on cells; also called Claudin9; HEK293 9; not shown: GFP fused to CLDN9
T3 sequence (looked up): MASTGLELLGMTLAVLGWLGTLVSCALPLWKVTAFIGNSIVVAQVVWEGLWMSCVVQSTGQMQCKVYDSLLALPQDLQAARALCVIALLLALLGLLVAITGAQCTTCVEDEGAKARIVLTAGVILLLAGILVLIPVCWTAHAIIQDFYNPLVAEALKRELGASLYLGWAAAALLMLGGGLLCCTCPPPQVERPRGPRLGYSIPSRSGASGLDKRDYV

[4] = molecular target: T4, CLDN6 cytoplasmic domain peptide SHYMARYSTSAPAIS (SEQ ID NO: 99) (human); assay: peptide epitope mapping (FIG 2)
T4 peptide: SHYMARYSTSAPAIS

binding result [1]: no binding
binding result [2]: no binding
binding result [3]: no binding
B1: Claudin-6 (CLDN6) antibody 3H11 (antibody, V domains shown)
VH: EIQLQQSGAELVRPGALVRLSCKPSGFNIKDYYIHWVKERPEQGLEWIGWIDPDNGDTLYDSKFQGKASLTADTSSNTAYLQLTSLTSEDTAVYYCATYRYSFAYWGQGTLVTVSA
VL: DIQMNQSPSSLSASLGDTITITCHASQNINVWLNWYQQKPGNIPKLLIFKASNLYTGVPSRFSGGGSGTGFTLTISSLQPEDIATYYCQQGQTYPLTFGGGTKLEIK
notes: Mouse hybridoma clone; Detection was with goat anti-mouse IgG; also called clone 3H11

binding result [4]: binds
binding result [1]: no binding
binding result [2]: no binding
binding result [3]: no binding
B2: Claudin-6 (CLDN6) antibody 3D07 (antibody, V domains shown)
VH: EVQLQQFGAELVKPGASVKISCRTSGYTFTDYNIDWVRQSHGKSLEWIGDINPNSENTDYNQKFKGKATLTVDKSSSTAYLELRSLTSEDTAVYYCARSPYGNYVGYLMDYWGQGTSVTVSS
VL: DVVLTQTPLSLPVNIGDQASISCRSTKSLLNSDGFTYLDWYLQKPGQSPQVLIYLISNRFSGVPDRFSGNGSGTDFTLKISRVEAEDLGVYYCFQSNYIPLTFGAGTKLELK
notes: Mouse hybridoma clone; Detection was with goat anti-mouse IgG; also called clone 3D07
